Legend:
[1] = target: mbIL-7-1 (CD52 signal peptide-IL-7-linker 1-BCMA extracellular domain-CD52); test: flow cytometry, share of stained cells; TIL sample T001-1 electroporated with mbIL-7-1
[2] = target: mbIL-7-2 (CD52 signal peptide-IL-7-linker 2-BCMA extracellular domain-CD52); test: flow cytometry, share of stained cells; TIL sample T002-2 electroporated with mbIL-7-2
[3] = target: mbIL-7-2 (CD52 signal peptide-IL-7-linker 2-BCMA extracellular domain-CD52); test: flow cytometry, share of stained cells; TIL sample T003-2 electroporated with mbIL-7-2
[4] = target: mbIL-7-7 (CD52 signal peptide-IL-7-linker 2-BCMA extracellular domain-CD8 transmembrane domain); test: flow cytometry, share of stained cells; TIL sample T003-7 electroporated with mbIL-7-7
[5] = target: mbIL-7-1 (CD52 signal peptide-IL-7-linker 1-BCMA extracellular domain-CD52); test: flow cytometry, share of stained cells; TIL sample T004-1 electroporated with mbIL-7-1
[6] = target: mbIL-7-3 (CD52 signal peptide-IL-7-linker 4-point-mutated BCMA extracellular domain-CD52); test: flow cytometry, share of stained cells; TIL sample T005-3 electroporated with mbIL-7-3
[7] = target: mbIL-7-5 (CD52 signal peptide-IL-7-point mutation BCMA extracellular domain-linker 4-CD52); test: flow cytometry, share of stained cells; TIL sample T006-5 electroporated with mbIL-7-5
[8] = target: mbIL-7-6 (CD52 signal peptide-IL-7-linker 3-BCMA extracellular domain-CD52); test: flow cytometry, share of stained cells; TIL sample T007-6 electroporated with mbIL-7-6
[9] = target: mbIL-7-8 (IL-7 signal peptide-IL-7-linker 2-truncated BCMA extracellular domain-CD52); test: flow cytometry, share of stained cells; TIL sample T008-8 electroporated with mbIL-7-8
[10] = target: mbIL-7-3 (CD52 signal peptide-IL-7-linker 4-point-mutated BCMA extracellular domain-CD52); test: flow cytometry, share of stained cells; TIL sample T009-3 electroporated with mbIL-7-3
[11] = target: mbIL-7-4 (CD52 signal peptide-IL-7-linker 5-truncated point-mutated BCMA extracellular domain-CD8 extracellular hinge region-CD52); test: flow cytometry, share of stained cells; TIL sample T010-4 electroporated with mbIL-7-4
[12] = target: mbIL-7-9 (CD52 signal peptide-IL-7-linker 5-truncated point-mutated BCMA extracellular domain-CD52); test: flow cytometry, share of stained cells; TIL sample T011-9 electroporated with mbIL-7-9
[13] = target: mbIL-7-9 (CD52 signal peptide-IL-7-linker 5-truncated point-mutated BCMA extracellular domain-CD52); test: flow cytometry, share of stained cells; TIL sample T012-9 electroporated with mbIL-7-9
[14] = target: mbIL-7-9 (CD52 signal peptide-IL-7-linker 5-truncated point-mutated BCMA extracellular domain-CD52); test: flow cytometry, share of stained cells; TIL sample T013-9 electroporated with mbIL-7-9
[15] = target: mbIL-7-9 (CD52 signal peptide-IL-7-linker 5-truncated point-mutated BCMA extracellular domain-CD52); test: flow cytometry, share of stained cells; TIL sample T014-9 electroporated with mbIL-7-9

mbIL-7-9 (CD52 signal peptide-IL-7-linker 5-truncated point-mutated BCMA extracellular domain-CD52), sequence (chain, as listed by the source limits assumed, change not shown): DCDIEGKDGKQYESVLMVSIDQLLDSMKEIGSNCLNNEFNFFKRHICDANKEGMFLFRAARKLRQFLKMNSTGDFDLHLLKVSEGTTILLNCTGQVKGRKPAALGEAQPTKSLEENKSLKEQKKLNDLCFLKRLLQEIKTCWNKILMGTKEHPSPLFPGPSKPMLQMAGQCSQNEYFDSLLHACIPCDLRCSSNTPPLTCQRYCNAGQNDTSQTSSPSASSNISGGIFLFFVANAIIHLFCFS
mbIL-7-1 (CD52 signal peptide-IL-7-linker 1-BCMA extracellular domain-CD52), sequence (chain, as listed by the source limits assumed): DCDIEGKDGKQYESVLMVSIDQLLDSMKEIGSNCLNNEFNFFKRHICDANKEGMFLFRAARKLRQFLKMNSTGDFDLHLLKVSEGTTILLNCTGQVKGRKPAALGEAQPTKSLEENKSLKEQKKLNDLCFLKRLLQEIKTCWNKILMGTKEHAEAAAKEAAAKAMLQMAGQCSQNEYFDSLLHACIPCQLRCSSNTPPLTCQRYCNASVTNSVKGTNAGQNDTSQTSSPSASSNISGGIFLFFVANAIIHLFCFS
mbIL-7-3 (CD52 signal peptide-IL-7-linker 4-point-mutated BCMA extracellular domain-CD52), sequence (chain, as listed by the source limits assumed, change not shown): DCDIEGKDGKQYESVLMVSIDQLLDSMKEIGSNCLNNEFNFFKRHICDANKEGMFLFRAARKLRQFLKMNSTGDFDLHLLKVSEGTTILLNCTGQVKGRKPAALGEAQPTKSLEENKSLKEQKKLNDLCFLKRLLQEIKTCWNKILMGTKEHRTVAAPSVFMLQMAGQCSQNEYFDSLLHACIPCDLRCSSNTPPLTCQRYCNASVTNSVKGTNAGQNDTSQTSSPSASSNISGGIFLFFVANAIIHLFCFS
mbIL-7-2 (CD52 signal peptide-IL-7-linker 2-BCMA extracellular domain-CD52), sequence (chain, as listed by the source limits assumed): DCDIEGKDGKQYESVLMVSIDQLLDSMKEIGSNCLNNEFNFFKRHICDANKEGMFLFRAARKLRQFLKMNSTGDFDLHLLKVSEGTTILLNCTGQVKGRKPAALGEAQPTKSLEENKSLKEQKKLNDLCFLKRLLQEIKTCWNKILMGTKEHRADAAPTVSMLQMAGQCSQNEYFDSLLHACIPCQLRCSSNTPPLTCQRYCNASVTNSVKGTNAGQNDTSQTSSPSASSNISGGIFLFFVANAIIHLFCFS
mbIL-7-6 (CD52 signal peptide-IL-7-linker 3-BCMA extracellular domain-CD52), sequence (chain, as listed by the source limits assumed): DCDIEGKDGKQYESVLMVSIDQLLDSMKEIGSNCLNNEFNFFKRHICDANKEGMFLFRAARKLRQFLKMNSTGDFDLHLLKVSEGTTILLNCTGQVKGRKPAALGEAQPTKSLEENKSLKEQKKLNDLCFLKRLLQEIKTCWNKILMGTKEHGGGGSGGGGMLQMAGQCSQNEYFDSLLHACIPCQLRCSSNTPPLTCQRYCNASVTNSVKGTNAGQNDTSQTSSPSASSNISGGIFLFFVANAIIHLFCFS
mbIL-7-5 (CD52 signal peptide-IL-7-point mutation BCMA extracellular domain-linker 4-CD52), sequence (chain, as listed by the source limits assumed, change not shown): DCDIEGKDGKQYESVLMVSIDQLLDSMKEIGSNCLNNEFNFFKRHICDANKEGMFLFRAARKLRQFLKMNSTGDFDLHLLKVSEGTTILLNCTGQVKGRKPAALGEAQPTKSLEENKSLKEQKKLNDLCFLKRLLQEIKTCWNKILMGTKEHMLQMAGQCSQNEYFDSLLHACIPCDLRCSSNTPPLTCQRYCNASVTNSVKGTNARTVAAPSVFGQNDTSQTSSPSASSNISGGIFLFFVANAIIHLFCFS
mbIL-7-8 (IL-7 signal peptide-IL-7-linker 2-truncated BCMA extracellular domain-CD52), sequence (chain, as listed by the source limits assumed): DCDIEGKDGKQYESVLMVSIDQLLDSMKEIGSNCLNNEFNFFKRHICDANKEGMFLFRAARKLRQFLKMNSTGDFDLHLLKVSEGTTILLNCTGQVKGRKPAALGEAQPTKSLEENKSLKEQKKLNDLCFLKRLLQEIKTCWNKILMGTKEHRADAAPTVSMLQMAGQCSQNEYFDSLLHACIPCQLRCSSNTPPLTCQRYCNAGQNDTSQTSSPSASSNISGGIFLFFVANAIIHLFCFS
mbIL-7-7 (CD52 signal peptide-IL-7-linker 2-BCMA extracellular domain-CD8 transmembrane domain), sequence (chain, as listed by the source limits assumed): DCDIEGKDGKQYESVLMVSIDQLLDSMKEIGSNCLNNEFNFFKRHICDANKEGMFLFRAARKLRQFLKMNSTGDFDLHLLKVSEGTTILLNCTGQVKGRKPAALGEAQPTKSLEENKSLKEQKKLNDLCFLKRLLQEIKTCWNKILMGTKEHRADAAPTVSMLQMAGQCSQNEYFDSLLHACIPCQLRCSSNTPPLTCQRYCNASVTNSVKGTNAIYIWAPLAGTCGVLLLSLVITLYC
mbIL-7-4 (CD52 signal peptide-IL-7-linker 5-truncated point-mutated BCMA extracellular domain-CD8 extracellular hinge region-CD52), sequence (chain, as listed by the source limits assumed, change not shown): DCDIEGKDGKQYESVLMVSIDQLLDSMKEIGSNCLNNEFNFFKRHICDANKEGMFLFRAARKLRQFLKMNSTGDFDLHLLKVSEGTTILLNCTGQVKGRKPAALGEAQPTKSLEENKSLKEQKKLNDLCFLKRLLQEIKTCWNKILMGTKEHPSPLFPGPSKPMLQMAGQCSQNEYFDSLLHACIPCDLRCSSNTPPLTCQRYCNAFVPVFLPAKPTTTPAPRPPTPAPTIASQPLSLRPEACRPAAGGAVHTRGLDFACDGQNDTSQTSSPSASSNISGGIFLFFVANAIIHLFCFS

BCMA flow antibody (purchased from Biolegend, catalog number 357504)
Positive rate (%) [1]: 49.3%
Positive rate (%) [2]: 45.4%
Positive rate (%) [3]: 51.2%
Positive rate (%) [4]: 15.1%
Positive rate (%) [5]: 40.2%
Positive rate (%) [6]: 54.1%
Positive rate (%) [7]: 44.7%
Positive rate (%) [8]: 12.3%
Positive rate (%) [9]: 42.5%
Positive rate (%) [10]: 52%
Positive rate (%) [11]: 43.8%
Positive rate (%) [12]: 47.6%
Positive rate (%) [13]: 50.1%
Positive rate (%) [14]: 45.9%
Positive rate (%) [15]: 41.1%

From EP4674954A1
